The supplement of paper PMC10567573

B1: KCNG1 (parent)
chain: LFVTVTAVNLSVSTLPSLREEEEQ

Variants of: B1
Assay: protein stability index of a GFP-peptide fusion (GPS, HEK-293T) (PSI 1-6); higher = more stable
Details: c terminus: a fixed tail appended
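Note: lentivirally expressed fusions sorted by FACS into six bins by GFP to DsRed ratio, PSI derived from sequencing read proportions per bin multiplied by bin number.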

Row | Variant | protein stability index
1 | LFVTVTAVNMSVSTLPSLREEEEQ [L10M] | 2.21
2 | LFVTVTAVNDSVSTLPSLREEEEQ [L10D] | 2.76
3 | LFVTVTAVNFSVSTLPSLREEEEQ [L10F] | 3.38
4 | LFVTVTAVNNSVSTLPSLREEEEQ [L10N] | 3.48
5 | LFVTVTAVNHSVSTLPSLREEEEQ [L10H] | 2.44
6 | LFVTVTAVNLSDSTLPSLREEEEQ [V12D] | 1.71
7 | LFVTVTAVNLSRSTLPSLREEEEQ [V12R] | 1.89
8 | LFVTVTAVNLSWSTLPSLREEEEQ [V12W] | 2.35
9 | LFVTVTAVNLSHSTLPSLREEEEQ [V12H] | 1.53
10 | LFVTVTAVNLSYSTLPSLREEEEQ [V12Y] | 2.08
11 | LFVTVTAVNLSFSTLPSLREEEEQ [V12F] | 2.17
12 | LFVTVTAVNLSASTLPSLREEEEQ [V12A] | 2.71
13 | LFVTVTAVNLSKSTLPSLREEEEQ [V12K] | 2.44
14 | LFVTVTAVNLSPSTLPSLREEEEQ [V12P] | 1.6
15 | LFVTVTAVNLSTSTLPSLREEEEQ [V12T] | 2.05
16 | LFVTVTAVNLSLSTLPSLREEEEQ [V12L] | 3.1
17 | LFVTVTAVNLSMSTLPSLREEEEQ [V12M] | 1.47
18 | LFVTVTAVNLSSSTLPSLREEEEQ [V12S] | 1.85
19 | LFVTVTAVNLSCSTLPSLREEEEQ [V12C] | 2.79
20 | LFVTVTAVNLSESTLPSLREEEEQ [V12E] | 2.19
21 | LFVTVTAVNLSGSTLPSLREEEEQ [V12G] | 1.45
22 | LFVTVTAVNLSQSTLPSLREEEEQ [V12Q] | 1.4
23 | LFVTVTAVNLSVSTLPHLREEEEQ [S17H] | 1.26
24 | LFVTVTAVNLSVSTLPGLREEEEQ [S17G] | 2.51

Row | Variant | protein stability index
25 | LFVTVTAVNLSVSTLPTLREEEEQ [S17T] | 2.22
26 | LFVTVTAVNLSVSTLPCLREEEEQ [S17C] | 1.79
27 | LFVTVTAVNLSVSTLPPLREEEEQ [S17P] | 2.55
28 | LFVTVTAVNLSVSTLPNLREEEEQ [S17N] | 1.7
29 | LFVTVTAVNLSVSTLPFLREEEEQ [S17F] | 1.79
30 | LFVTVTAVNLSVSTLPALREEEEQ [S17A] | 1.55
31 | LFVTVTAVNLSVSTLPKLREEEEQ [S17K] | 4.4
32 | LFVTVTAVNLSVSTLPELREEEEQ [S17E] | 3.27
33 | LFVTVTAVNLSVSTLPYLREEEEQ [S17Y] | 1.51
34 | LFVTVTEVNLSVSTLPSLREEEEQ [A7E] | 3.03
35 | LFVTVTGVNLSVSTLPSLREEEEQ [A7G] | 1.5
36 | LFVTVTIVNLSVSTLPSLREEEEQ [A7I] | 4.2
37 | LFVTVTHVNLSVSTLPSLREEEEQ [A7H] | 2.5
38 | LFVTVTKVNLSVSTLPSLREEEEQ [A7K] | 3.01
39 | LFVTVTYVNLSVSTLPSLREEEEQ [A7Y] | 3.4
40 | LFVTVTDVNLSVSTLPSLREEEEQ [A7D] | 2.89
41 | LFVTVTPVNLSVSTLPSLREEEEQ [A7P] | 1.8
42 | LFVTVTQVNLSVSTLPSLREEEEQ [A7Q] | 2.58
43 | LFVTVTTVNLSVSTLPSLREEEEQ [A7T] | 1.34
44 | LFVTVTCVNLSVSTLPSLREEEEQ [A7C] | 2.9
45 | LFVTVTMVNLSVSTLPSLREEEEQ [A7M] | 2.03
46 | LFGTVTAVNLSVSTLPSLREEEEQ [V3G] | 3.53
47 | LFETVTAVNLSVSTLPSLREEEEQ [V3E] | 4.93
48 | LFTTVTAVNLSVSTLPSLREEEEQ [V3T] | 4.52

Row | Variant | protein stability index
49 | LFRTVTAVNLSVSTLPSLREEEEQ [V3R] | 4.5
50 | LFMTVTAVNLSVSTLPSLREEEEQ [V3M] | 1.75
51 | LFITVTAVNLSVSTLPSLREEEEQ [V3I] | 2.67
52 | LFSTVTAVNLSVSTLPSLREEEEQ [V3S] | 4.05
53 | LFYTVTAVNLSVSTLPSLREEEEQ [V3Y] | 1.92
54 | LFFTVTAVNLSVSTLPSLREEEEQ [V3F] | 1.65
55 | LFNTVTAVNLSVSTLPSLREEEEQ [V3N] | 4.51
56 | LFPTVTAVNLSVSTLPSLREEEEQ [V3P] | 5.3
57 | LFQTVTAVNLSVSTLPSLREEEEQ [V3Q] | 3.58
58 | LFLTVTAVNLSVSTLPSLREEEEQ [V3L] | 1.53
59 | LFKTVTAVNLSVSTLPSLREEEEQ [V3K] | 3.71
60 | LFHTVTAVNLSVSTLPSLREEEEQ [V3H] | 3.75
61 | LFWTVTAVNLSVSTLPSLREEEEQ [V3W] | 1.91
62 | LFVTRTAVNLSVSTLPSLREEEEQ [V5R] | 3.2
63 | LFVTFTAVNLSVSTLPSLREEEEQ [V5F] | 2.68
64 | LFVTETAVNLSVSTLPSLREEEEQ [V5E] | 4.46
65 | LFVTKTAVNLSVSTLPSLREEEEQ [V5K] | 3.75
66 | LFVTHTAVNLSVSTLPSLREEEEQ [V5H] | 3.52
67 | LFVTWTAVNLSVSTLPSLREEEEQ [V5W] | 2.3
68 | LFVTNTAVNLSVSTLPSLREEEEQ [V5N] | 3.64
69 | LFVTATAVNLSVSTLPSLREEEEQ [V5A] | 2.42
70 | LFVTMTAVNLSVSTLPSLREEEEQ [V5M] | 2.18
71 | LFVTITAVNLSVSTLPSLREEEEQ [V5I] | 3.56
72 | LFVTYTAVNLSVSTLPSLREEEEQ [V5Y] | 2.14

Row | Variant | protein stability index
73 | LFVTQTAVNLSVSTLPSLREEEEQ [V5Q] | 3.94
74 | LFVTTTAVNLSVSTLPSLREEEEQ [V5T] | 3.16
75 | LFVTCTAVNLSVSTLPSLREEEEQ [V5C] | 2.1
76 | LFVTGTAVNLSVSTLPSLREEEEQ [V5G] | 3.99
77 | LFVTPTAVNLSVSTLPSLREEEEQ [V5P] | 4.91
78 | LFVTDTAVNLSVSTLPSLREEEEQ [V5D] | 4.51
79 | LFVTLTAVNLSVSTLPSLREEEEQ [V5L] | 2.2
80 | LFVTSTAVNLSVSTLPSLREEEEQ [V5S] | 3.5
81 | LFVTVTAANLSVSTLPSLREEEEQ [V8A] | 2.02
82 | LFVTVTAHNLSVSTLPSLREEEEQ [V8H] | 2.95
83 | LFVTVTASNLSVSTLPSLREEEEQ [V8S] | 2.77
84 | LFVTVTAYNLSVSTLPSLREEEEQ [V8Y] | 2.15
85 | LFVTVTANNLSVSTLPSLREEEEQ [V8N] | 2.49
86 | LFVTVTAENLSVSTLPSLREEEEQ [V8E] | 3.16
87 | LFVTVTAPNLSVSTLPSLREEEEQ [V8P] | 2.29
88 | LFVTVTATNLSVSTLPSLREEEEQ [V8T] | 2.09
89 | LFVTVTAKNLSVSTLPSLREEEEQ [V8K] | 2.15
90 | LFVTVTAQNLSVSTLPSLREEEEQ [V8Q] | 1.85
91 | LFVTVTARNLSVSTLPSLREEEEQ [V8R] | 2.51
92 | LFVTVTAMNLSVSTLPSLREEEEQ [V8M] | 1.23
93 | LFVTVTADNLSVSTLPSLREEEEQ [V8D] | 2.29
94 | LFVTVTACNLSVSTLPSLREEEEQ [V8C] | 3.11
